Where two headings read alike, the source gives them in different places.
Legend:
Cdc5-R1-R2-D3ΔL [1] = molecular target: T1, Cdc5-R1-R2-D3ΔL (Schizosaccharomyces pombe, UniProt P39964 5-208, del111-146); assay: pull-down
Cdc5-R1-R2-D3ΔL [2] = molecular target: T1, Cdc5-R1-R2-D3ΔL; assay: pull-down; remark: listed apart in the source

CAGAGAA (ssRNA) [Bi-U6 ssRNA]: binds (Cdc5-R1-R2-D3ΔL [1]).

AAGUGUAG (ssRNA) [Bi-U2 ssRNA]: binds (Cdc5-R1-R2-D3ΔL [1]).

CGUACACCAUCAGGGUACG (structured_RNA) [Bi-MS2 dsRNA]: binds (Cdc5-R1-R2-D3ΔL [2]).
